Reference: article PMC5818494 (Scientific Reports, 2018)

B1: MBP-JMJD7 fusion protein (with a truncated linker) (enzyme, mouse)
chain: MAEAALEAVRRALQEFPAAARDLNVPRVVPYLDEPPSPLCFYRDWVCPNRPCIIRNALQHWPALQKWSLSYLRATVGSTEVSVAVTPDGYADAVRGDRFVMPAERRLPISHVLDVLEGRAQHPGVLYVQKQCSNLPTELPQLLSDIESHVPWASESLGKMPDAVNFWLGDASAVTSLHKDHYENLYCVVSGEKHFLLHPPSDRPFIPYNLYTPATYQLTEEGTFRVVDEEAMEKVPWIPLDPLAPDLTQYPSYSQAQALHCTVRAGEMLYLPALWFHHVQQSHGCIAVNFWYDMEYDLKYSYFQLMDTLTRATGLD
notes: JMJD7, mouse; Crystallised as the fusion; MBP (PDB 1HSJ) was a search model for molecular replacement
B2: JMJD7 (mouse), JMJD7 protein alone generated from GST-JMJD7 fusion protein (enzyme)
chain: B1 chain
notes: JMJD7, mouse; The GST-derived, tag-free form is stated for the crystals; also called mJMJD7; GST-free JMJD7

Experiments:
[1] = target: the molecule itself; assay: crystal structure; MBP-JMJD7 (20 mg/ml), vapor diffusion, 100 mM Citrate Sodium, 20% PEG 3350, 4 °C; in the absence of α-KG; two molecules in one asymmetric unit
[2] = target: the molecule itself; assay: crystal structure; mJMJD7 (from GST-mJMJD7, tag removed, 10 mg/ml), vapor diffusion, 0.1 M MES monohydrate pH6.0, 10% PEG4000, 4 °C; in the presence of α-KG; two molecules in one asymmetric unit

Protein | stoichiometry N [1] | stoichiometry N [2]
B1 | 2 | 
B2 |  | 2
